# Target: recombinant human PD-1 dimer expressed with a C-terminal mouse IgG2a Fc tag (hPD-1-mFc) (human)
# Experiment: competition ELISA, 1.5 nM hPD-1-mFc, coated hPD-L1-hFc; NBI
# Chain of recombinant human PD-1 dimer expressed with a C-terminal mouse IgG2a Fc tag (hPD-1-mFc) (human) (chain, as listed by the source limits assumed): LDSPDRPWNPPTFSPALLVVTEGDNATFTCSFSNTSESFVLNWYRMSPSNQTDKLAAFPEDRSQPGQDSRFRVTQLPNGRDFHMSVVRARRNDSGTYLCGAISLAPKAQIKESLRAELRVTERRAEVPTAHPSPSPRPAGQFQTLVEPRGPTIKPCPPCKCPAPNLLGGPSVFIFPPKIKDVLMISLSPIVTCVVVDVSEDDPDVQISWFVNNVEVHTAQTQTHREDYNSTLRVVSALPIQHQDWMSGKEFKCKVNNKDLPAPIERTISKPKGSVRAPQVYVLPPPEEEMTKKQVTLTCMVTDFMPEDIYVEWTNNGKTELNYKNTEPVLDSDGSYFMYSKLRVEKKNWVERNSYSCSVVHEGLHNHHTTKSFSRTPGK
substance,measurement,value
Isotype control 2 (antibody),% blocking at 200 nM antibody,-18%

# Source: patent US20240382677A1
